One assay deals with CCR9^QTY–Fc (UniProt P51686). Nature of the assay: MST; 5 nM NT647-labelled receptor-Fc against a gradient of ligand; 1x PBS, 10 mM DTT, arginine at different concentrations; Monolith NT.115 pico, 25°C; data from the early T-Jump period; Kd model (law of mass action).
A further assay addresses CCL25 (Homo sapiens) (UniProt O15444). Particulars: cited from earlier work.
In assay [1] the target is IL8 (dimer) (Homo sapiens) (UniProt P10145). Nature of the assay: cell-based assay. As to conditions: cited from earlier work.
Sequence of IL8 (dimer) (Homo sapiens) (P10145 28-99): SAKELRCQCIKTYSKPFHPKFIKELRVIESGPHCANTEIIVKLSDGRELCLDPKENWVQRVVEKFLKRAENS
Assay [2] has as its target IL8 (monomer) (Homo sapiens) (UniProt P10145). Nature of the assay: cell-based assay. As to conditions: cited from earlier work.
A further assay deals with IL8 (Homo sapiens) (UniProt P10145). Particulars: cited from earlier work.
Sequence of IL8 (Homo sapiens) (P10145 28-99): as above
The target in another assay is IFNγR1^QTY–Fc. Nature of the assay: MST; 5 nM NT647-labelled receptor-Fc against a gradient of ligand; 1x PBS, 10 mM DTT, arginine at different concentrations; Monolith NT.115 pico, 25°C; data from the early T-Jump period; Kd model (law of mass action).
In assay [3] the target is IFNγ (Homo sapiens) (UniProt P01579). Nature of the assay: cell-based assay. As to conditions: cited from earlier work.
Sequence of IFNγ (Homo sapiens) (P01579 24-161): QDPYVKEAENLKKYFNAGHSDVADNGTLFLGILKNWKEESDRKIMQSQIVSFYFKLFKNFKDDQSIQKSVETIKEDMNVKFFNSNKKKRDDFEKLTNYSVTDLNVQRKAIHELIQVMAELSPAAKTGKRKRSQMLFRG
Assay [4] has the same target. Nature of the assay: SPR. Particulars: cited from earlier work.
The next assay addresses IL4 (Homo sapiens) (UniProt P05112). Nature of the assay: SPR. As to conditions: cited from earlier work.
A further assay deals with IL10Rα^QTY–Fc. Nature of the assay: MST; 5 nM NT647-labelled receptor-Fc against a gradient of ligand; 1x PBS, 10 mM DTT, arginine at different concentrations; Monolith NT.115 pico, 25°C; data from the early T-Jump period; Kd model (law of mass action).
A further assay deals with IFNλR1^QTY–Fc. Described as above.

Sequence of CXCR2 (P25025 whole entry): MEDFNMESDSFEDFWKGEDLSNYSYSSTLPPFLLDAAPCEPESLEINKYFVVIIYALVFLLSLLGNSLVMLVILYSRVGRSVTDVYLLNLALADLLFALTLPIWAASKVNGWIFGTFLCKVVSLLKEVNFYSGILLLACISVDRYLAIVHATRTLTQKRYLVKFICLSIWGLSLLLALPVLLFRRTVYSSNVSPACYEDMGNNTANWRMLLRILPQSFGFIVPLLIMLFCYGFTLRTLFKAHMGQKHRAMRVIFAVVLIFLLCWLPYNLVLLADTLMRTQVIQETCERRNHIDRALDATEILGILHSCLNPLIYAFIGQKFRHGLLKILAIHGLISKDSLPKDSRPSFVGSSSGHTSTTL
Sequence of IFNγR1 (P15260 18-245): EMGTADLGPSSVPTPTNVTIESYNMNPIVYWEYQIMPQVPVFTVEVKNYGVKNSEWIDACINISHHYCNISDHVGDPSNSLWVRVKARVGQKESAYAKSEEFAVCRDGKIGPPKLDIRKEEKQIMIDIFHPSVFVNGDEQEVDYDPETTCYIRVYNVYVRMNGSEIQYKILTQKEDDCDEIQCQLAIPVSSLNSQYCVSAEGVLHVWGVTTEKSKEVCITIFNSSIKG
Sequence of IL29 (Q8IU54 20-200): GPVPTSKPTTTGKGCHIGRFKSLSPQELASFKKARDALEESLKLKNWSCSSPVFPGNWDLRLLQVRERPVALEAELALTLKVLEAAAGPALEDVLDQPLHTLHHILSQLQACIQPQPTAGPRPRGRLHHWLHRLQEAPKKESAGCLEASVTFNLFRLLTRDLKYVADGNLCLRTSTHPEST
Sequence of CCL25 (O15444 24-150): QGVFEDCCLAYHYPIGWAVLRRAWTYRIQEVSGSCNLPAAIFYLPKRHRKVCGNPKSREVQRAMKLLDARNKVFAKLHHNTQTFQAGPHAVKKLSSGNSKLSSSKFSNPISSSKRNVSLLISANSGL
Sequence of CCL25 (Homo sapiens) (O15444 24-150): as above
Sequence of IL4Rα (P24394 26-232): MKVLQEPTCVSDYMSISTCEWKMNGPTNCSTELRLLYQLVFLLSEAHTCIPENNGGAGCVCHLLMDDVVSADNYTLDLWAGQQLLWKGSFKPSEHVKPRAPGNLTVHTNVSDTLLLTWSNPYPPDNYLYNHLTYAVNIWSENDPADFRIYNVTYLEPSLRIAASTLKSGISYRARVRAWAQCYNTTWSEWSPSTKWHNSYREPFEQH
Sequence of IL4 (Homo sapiens) (P05112 25-153): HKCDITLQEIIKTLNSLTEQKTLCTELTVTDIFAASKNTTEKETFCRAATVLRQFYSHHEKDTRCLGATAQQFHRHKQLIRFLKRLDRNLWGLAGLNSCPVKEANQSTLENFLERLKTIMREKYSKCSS
Sequence of IL8 (monomer) (Homo sapiens) (P10145 28-99): as the sequence (P10145 28-99) above
Sequence of IL10 (P22301 19-178): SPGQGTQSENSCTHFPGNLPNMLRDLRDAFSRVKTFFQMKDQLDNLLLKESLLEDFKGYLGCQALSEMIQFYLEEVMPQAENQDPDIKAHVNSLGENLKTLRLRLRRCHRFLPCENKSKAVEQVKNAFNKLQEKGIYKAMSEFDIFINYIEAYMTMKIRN
Sequence of IFNγ (P01579 24-161): as the sequence (P01579 24-161) above

Consider “CCL25 (from UniProt O15444 24-150) (ligand)”, for which the Kd with CCR9^QTY–Fc turned out to be 37.2 nM.

Consider CCR9 (from UniProt P51686), for which the Kd in the assay with CCL25 (Homo sapiens) is 8 nM.

On to CXCR2 (from UniProt P25025), for which the values for the Kd (in [1]; in [2]; in the assay with IL8 (Homo sapiens)) were 8.5 nM, 0.5 nM and 70 nM, respectively.

The substance “IFNγ (from UniProt P01579 24-161) (ligand)” showed an equilibrium dissociation constant (Kd) with IFNγR1^QTY–Fc of 6.2 nM.

Take IFNγR1 (from UniProt P15260): the values for the Kd in the assay with IFNγ (Homo sapiens) [3] and with IFNγ (Homo sapiens) [4] were 1.7 nM and 30.8 nM, respectively.

For IL4Rα (from UniProt P24394), in the assay with IL4 (Homo sapiens), the dissociation constant Kd was 1 nM.

As to “IL10 (from UniProt P22301 19-178) (ligand)”, the Kd in the assay with IL10Rα^QTY–Fc is 1.6 nM.

“IL29 (from UniProt Q8IU54 20-200) (ligand)”: the Kd with IFNλR1^QTY–Fc is 11.5 nM.

One may read the Kd as the equilibrium constant for the complex coming apart.

The values are drawn from article PMC7419741.
